[ ]: non-standard residue; d: D form. Hyp = O=C(O)[C@@H]1C[C@@H](O)CN1; NMeI = CC[C@H](C)[C@H](NC)C(=O)O
B1: Compound (j), H-Phe-Gly-Gly-D-Arg-Ile-Asp-D-Arg-Ile-NH2 (peptide)
peptide: H-FGG[dR]ID[dR]I-NH2
SMILES: CC[C@H](C)[C@H](NC(=O)[C@@H](CCCNC(=N)N)NC(=O)[C@H](CC(=O)O)NC(=O)[C@@H](NC(=O)[C@@H](CCCNC(=N)N)NC(=O)CNC(=O)CNC(=O)[C@@H](N)Cc1ccccc1)[C@@H](C)CC)C(N)=O
B2: Compound (m), H-D-Arg-Arg-Pro-Hyp-Gly-Phe-Ser-D-Phe-Leu-Arg-OH (peptide)
peptide: H-[dR]RP[Hyp]GFS[dF]LR-OH
SMILES: CC(C)C[C@H](NC(=O)[C@@H](Cc1ccccc1)NC(=O)[C@H](CO)NC(=O)[C@H](Cc1ccccc1)NC(=O)CNC(=O)[C@@H]1C[C@@H](O)CN1C(=O)[C@@H]1CCCN1C(=O)[C@H](CCCNC(=N)N)NC(=O)[C@H](N)CCCNC(=N)N)C(=O)N[C@@H](CCCNC(=N)N)C(=O)O
B3: Compound (k), H-Phe-Gly-Gly-Arg-(N-Me)Ile-Asp-Arg-Ile-NH2 (peptide)
peptide: H-FGGR[NMeI]DRI-NH2
SMILES: CC[C@H](C)[C@H](NC(=O)[C@H](CCCNC(=N)N)NC(=O)[C@H](CC(=O)O)NC(=O)[C@H]([C@@H](C)CC)N(C)C(=O)[C@H](CCCNC(=N)N)NC(=O)CNC(=O)CNC(=O)[C@@H](N)Cc1ccccc1)C(N)=O

Columns and labels:
[1] = target: Bovine lung-derived ANP receptor (bovine); experiment: displacement of 125I-rat ANP from bovine lung membrane fraction, filter binding
Sequence of Bovine lung-derived ANP receptor (bovine) (P10730 42-537): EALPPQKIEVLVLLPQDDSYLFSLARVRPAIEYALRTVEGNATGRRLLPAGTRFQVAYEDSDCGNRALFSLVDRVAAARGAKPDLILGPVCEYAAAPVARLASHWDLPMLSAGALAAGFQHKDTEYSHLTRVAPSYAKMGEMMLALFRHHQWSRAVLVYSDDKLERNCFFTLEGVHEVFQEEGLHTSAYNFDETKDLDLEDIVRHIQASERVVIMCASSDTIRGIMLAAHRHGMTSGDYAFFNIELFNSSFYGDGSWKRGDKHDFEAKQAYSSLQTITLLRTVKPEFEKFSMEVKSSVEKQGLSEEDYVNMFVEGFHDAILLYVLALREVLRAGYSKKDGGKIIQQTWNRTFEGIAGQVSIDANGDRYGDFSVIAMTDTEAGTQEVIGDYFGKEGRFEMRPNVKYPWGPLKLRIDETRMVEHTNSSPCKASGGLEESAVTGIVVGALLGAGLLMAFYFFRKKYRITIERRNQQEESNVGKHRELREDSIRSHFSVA

[2] = target: BK receptor derived from guinea pig ilea (guinea pig); experiment: inhibition of 3H-BK (200 pM) binding to guinea pig ileum membrane fraction; test compound at 10^-7 M
Sequence of BK receptor derived from guinea pig ilea (guinea pig) (O70526 whole entry): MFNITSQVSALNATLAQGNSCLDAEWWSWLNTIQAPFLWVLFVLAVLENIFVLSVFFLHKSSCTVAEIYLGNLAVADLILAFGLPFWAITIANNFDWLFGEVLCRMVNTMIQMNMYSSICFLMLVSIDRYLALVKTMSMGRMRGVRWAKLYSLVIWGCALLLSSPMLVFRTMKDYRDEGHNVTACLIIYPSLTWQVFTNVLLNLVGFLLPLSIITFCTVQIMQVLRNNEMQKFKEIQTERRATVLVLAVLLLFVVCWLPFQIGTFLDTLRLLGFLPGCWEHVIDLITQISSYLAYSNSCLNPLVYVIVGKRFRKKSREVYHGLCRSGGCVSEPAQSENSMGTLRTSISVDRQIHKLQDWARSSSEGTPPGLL

[3] = target: BK receptor derived from guinea pig ilea (guinea pig); experiment: inhibition of 3H-BK (200 pM) binding to guinea pig ileum membrane fraction; test compound at 10^-8 M

Binder	IC50 [1] [nM]	Percentage inhibition (%) [2] [%]	Percentage inhibition (%) [3] [%]
B1	5400	–	–
B2	–	68	20
B3	21	–	–

Source: patent US6872803
